Assay results reported in US20150110774A1, “S100 PROTEIN INHIBITORS FOR TREATING LEUKEMIA” (UNIVERSITE LAVAL, priority 2004, published 2015).

B1: S100A8: recombinant S100 calcium-binding protein, Myeloid Related Protein (MRP) (protein, UniProt P05109 1-93, looked up)
Protein S100-A8: MLTELEKALNSIIDVYHKYSLIKGNFHAVYRDDLKKLLETECPQYIRKKGADVWFKELDINTDGAVNFQEFLILVIKMGVAAHKKSHEESHKE
B2: S100A8/A9: heterodimer of S100A8 and S100A9 (protein, UniProt P05109 1-93; P06702 1-114, looked up)
Protein S100-A8: B1 Protein S100-A8
Protein S100-A9: MTCKMSQLERNIETIINTFHQYSVKLGHPDTLNQGEFKELVRKDLQNFLKKENKNEKVIEHIMEDLDTNADKQLSFEEFIMLMARLTWASHEKMHEGDEGPGHHHKPGLGEGTP
B3: S100A9: recombinant S100 calcium-binding protein, Myeloid Related Protein (MRP) (protein, UniProt P06702 1-114, looked up)
Protein S100-A9: B2 Protein S100-A9

How the values were obtained:
advanced leukemia = settings: clinical studies; cited from earlier work
bone marrow cells = test: Bone marrow cell proliferation (colonies in methylcellulose, 14 days); assay type: cell-based, mice; settings: mouse bone marrow cells, FIG. 3
Method: Bone marrow cells were collected by flushing PBS through incisions made in the femurs of mice, followed by disaggregation. After removing contaminating erythrocytes by hypoosmotic lysis, bone marrow cells were cultured in semi-solid state in Methocult methylcellulose-based media (Stemcell technologies) for 14 days in presence of increasing concentrations of S100A8. At the end of the incubation period, the colonies were numerated. Similar results were obtained with S100A9, S100A8/A9, and S100A12. Results are from one experiment representative of 2 others (FIG. 3). All monomers and heterodimers have shown a growth stimulatory activity on bone marrow cells.

[1] = test system: bone marrow cells from AML and CML patients; test: AML/CML patient bone marrow cell proliferation (colony assay); assay type: cell-based, human; settings: FIG. 4
Method: PBMC and BM (5×10^4 cells) were incubated at 37° C. in methylcellulose-based media containing 1% methylcellulose in Iscove MDM, 30% foetal bovine serum, 1% BSA, 10^−4 M 2-mercaptoethanol and 2 mM of L-glutamine supplemented (+CSF) or not (−CSF) by 50 ng/mL of rhSCF, 10 ng/mL of rhIL-3, and 10 ng/mL of rhGM-CSF to support optimal growth of CFU-Granulocyte Macrophage (CFU-GM) CFU-Granulocyte (CFU-G) and CFU-Macrophage (CFU-M). Different concentrations of S100A12, S100A8, and/or S100A9 were also added to the cells. After 15 days, colony-forming units were counted.
Bone marrow cells were obtained by aspirates from a CML patient. (A) The cells were cultured for 14 days in Iscove medium supplemented with 15% FCS and 2% methylcellulose, in presence of increasing concentrations of S100A12. (B) The cells were culture for 14 days in presence of 10 pg/ml of S100A8, S100A9, S100A8/A9, or S100A12 in a methylcellulose medium supplemented or not with 50 ng/ml of Stem cell factor, 10 ng/ml of GM-CSF, and 10 ng/ml of IL-3. The results are the number of colonies per 30 mm^2 petri dishes (FIG. 4). As observed in Example III, different S100 proteins have stimulatory activity on bone marrow cells.

leukocytes = test: Leukocyte accumulation in the murine air pouch model; assay type: in vivo, mice; settings: air pouch exudate; remainder monocytes
Method: S100A8, S100A9, and S100A12 induce an inflammatory reaction when injected in the murine air pouch model. In this model, sterile air is injected subcutaneously under the dorsum of mice on days 0 and 3. On day 7, an enclosed environment is formed in which it is possible to inject pro-inflammatory products. Injection of S100A8, S100A9, S100A12, or S100A8/A9 in the air pouch leads to the accumulation within 3 hrs of up to 8×10^6 leukocytes (FIG. 1). Leukocytes recruited consists of neutrophils (80%) and monocytes. The total number of neutrophils circulating in the peripheral blood of a mouse is estimated at 2.5×10^6 cells. […] This is confirmed by i.v. injections of S100 proteins which leads to the release of neutrophils from the bone marrow to the peripheral blood (FIG. 2). […] More importantly, the concentrations at which they exerted these functions are similar to those found in the plasma of patients suffering, for example but not limited to, from AML and CML.
Air pouches were raised in 10 to 12 week-old CD-1 mice. One ml of murine S100A8 ([…], 5 nM) or phosphate buffered saline (PBS) were injected into the air pouches and the migrating leukocytes were harvested by washing with PBS-EDTA 5 mM at various times. Leukocytes in exudates were counted, centrifuged on microscope slides and stained with Wright-Giemsa. Data represent the mean±SEM of at least 7 mice (FIG. 1).

Molecule	activity in patients with advanced leukemia (advanced leukemia)	proliferation of bone marrow cells (bone marrow cells)	proliferation of bone marrow cells from AML and CML patients [1]	neutrophils among leukocytes recruited (leukocytes)
Nc1ccn([C@@H]2CO[C@H](CO)O2)c(=O)n1 [β-L-OddC, (−)-β-L-Dioxolane-Cytidine]	significant activity	–	–	–
B1	–	increase of proliferation	proliferation also occurs	80%
B2	–	increase of proliferation	–	80%
B3	–	increase of proliferation	proliferation also occurs	80%
